Consider five molecules from patent US20240141060A1 (Novartis, published 2024).

For experiment [1], the target named is T1, Cynomolgus CD73/NT5E Protein (His Tag) (Sino Biological Cat: 90192-C08H-50) (cynomolgus monkey, UniProt A0A2K5V5U7 27-547).
T1 construct: treated as one protein; also called Cynomolgus CD73-His; recombinant cynomolgus monkey CD73; not shown: His tag
T1 sequence: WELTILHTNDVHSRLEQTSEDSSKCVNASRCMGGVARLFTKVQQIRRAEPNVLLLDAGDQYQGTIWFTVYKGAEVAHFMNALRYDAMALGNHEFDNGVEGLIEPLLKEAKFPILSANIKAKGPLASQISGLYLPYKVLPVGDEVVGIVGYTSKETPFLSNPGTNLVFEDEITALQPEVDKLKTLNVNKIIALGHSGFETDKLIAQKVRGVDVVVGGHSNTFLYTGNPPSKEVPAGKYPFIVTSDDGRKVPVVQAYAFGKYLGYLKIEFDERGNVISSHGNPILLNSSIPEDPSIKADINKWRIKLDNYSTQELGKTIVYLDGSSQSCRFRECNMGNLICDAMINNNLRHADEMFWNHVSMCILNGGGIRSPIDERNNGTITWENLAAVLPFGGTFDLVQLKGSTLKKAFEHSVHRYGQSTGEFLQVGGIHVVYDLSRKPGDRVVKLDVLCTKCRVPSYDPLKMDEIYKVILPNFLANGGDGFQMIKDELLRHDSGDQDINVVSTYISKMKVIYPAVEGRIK
The experiment in a line: ForteBio Octet RED384 (BLI), whole IgG on AHQ sensors, 100 nM antigen, 1:1 model. The method, then: (§1) Briefly, ForteBio affinity measurements were performed by loading IgGs on-line onto AHQ sensors. Sensors were equilibrated off-line in assay buffer for 30 min and then monitored on-line for 60 seconds for baseline establishment. Sensors with loaded IgGs were exposed to 100 nM antigen for 3 minutes, and afterwards were transferred to assay buffer for 3 min for off-rate measurement. All kinetics were analyzed using the 1:1 binding model. Antigens used were: [0438] Human CD73-His: Recombinant Human 5′-Nucleotidase/CD73 Protein, CF from R&D Systems Cat: 5795-EN [0439] Mouse CD73-His: Recombinant Mouse 5′-Nucleotidase/CD73 Protein, CF from R&D Systems Cat: 4488-EN [0440] Cynomolgus CD73-His: Cynomolgus CD73/NT5E Protein (His Tag) from Sino Biological Cat: 90192-C08H-50

Experiment [2] addresses T2, Recombinant Human 5′-Nucleotidase/CD73 Protein, CF (R&D Systems Cat: 5795-EN) (human, UniProt P21589 27-547).
T2 construct: Bought protein; also called Human CD73-His; recombinant human CD73; not shown: His tag
T2 sequence (looked up): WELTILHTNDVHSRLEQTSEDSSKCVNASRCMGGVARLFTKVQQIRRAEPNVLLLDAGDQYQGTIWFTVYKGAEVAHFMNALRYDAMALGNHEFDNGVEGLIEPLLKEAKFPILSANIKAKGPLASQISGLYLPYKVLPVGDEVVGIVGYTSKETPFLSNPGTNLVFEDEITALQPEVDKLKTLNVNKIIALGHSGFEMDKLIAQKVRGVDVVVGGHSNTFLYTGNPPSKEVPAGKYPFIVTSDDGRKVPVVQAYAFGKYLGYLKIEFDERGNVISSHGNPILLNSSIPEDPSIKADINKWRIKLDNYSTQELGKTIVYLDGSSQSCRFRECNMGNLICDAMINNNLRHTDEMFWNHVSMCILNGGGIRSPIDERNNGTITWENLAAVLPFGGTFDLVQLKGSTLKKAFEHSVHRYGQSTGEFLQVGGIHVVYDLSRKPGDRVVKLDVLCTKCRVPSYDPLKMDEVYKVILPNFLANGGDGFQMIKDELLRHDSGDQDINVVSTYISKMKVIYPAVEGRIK
The description is as above. On the procedure:
as §1

The target in experiment [3] is T3, Recombinant Mouse 5′-Nucleotidase/CD73 Protein, CF (R&D Systems Cat: 4488-EN) (mouse, UniProt Q61503 29-549, limits assumed).
T3 construct: Bought protein; also called Mouse CD73-His; recombinant mouse CD73; not shown: His tag
T3 sequence (looked up): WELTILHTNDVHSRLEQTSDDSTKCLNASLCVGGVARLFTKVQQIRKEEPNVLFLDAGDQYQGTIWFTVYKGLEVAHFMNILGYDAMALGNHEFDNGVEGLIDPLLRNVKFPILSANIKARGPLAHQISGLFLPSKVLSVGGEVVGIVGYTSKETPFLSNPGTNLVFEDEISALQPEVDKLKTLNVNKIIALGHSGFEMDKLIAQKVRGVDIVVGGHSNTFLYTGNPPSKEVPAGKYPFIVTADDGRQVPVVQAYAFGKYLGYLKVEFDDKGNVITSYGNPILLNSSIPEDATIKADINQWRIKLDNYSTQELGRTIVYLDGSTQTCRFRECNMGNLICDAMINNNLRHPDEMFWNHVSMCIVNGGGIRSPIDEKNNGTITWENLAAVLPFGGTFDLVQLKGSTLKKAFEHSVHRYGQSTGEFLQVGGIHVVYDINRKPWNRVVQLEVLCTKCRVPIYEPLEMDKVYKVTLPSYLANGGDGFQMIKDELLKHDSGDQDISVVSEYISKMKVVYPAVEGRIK
The experiment is described as above. On the procedure: as §1

Experiment [4] deals with T1, Cynomolgus CD73/NT5E Protein (His Tag) …. The experiment in a line: Biacore SPR, Fab captured by anti-human Fab on CM5 chip, CD73 0.01-90 nM as analyte. The method, then: (§2) Proteins used were as follows: recombinant human CD73 (R&D Systems 5795-EN); recombinant cynomolgus monkey CD73 (Sino Biological 90912-C08H); recombinant mouse CD73 (R&D Systems 4488-EN); and recombinant rat CD73 (Sino Biological 80375-R08H). Anti-human Fab (GE Healthcare Life Sciences) was immobilized on all 4 flow cells (Fc) on a CM5 chip (GE). […] 0.01 nM to 90 nM CD73 (3-fold dilution series) was flown over all 4 Fcs. All samples were diluted in running buffer HBS-EP+(pH 7.4, 0.01 M HEPES, 150 mM NaCl, 3 mM EDTA and 0.05% (v/v) P20).
(In SPR one partner is held on a chip, and binding of the other changes the refractive index at the surface.)

In experiment [5] the target is T2, Recombinant Human 5′-Nucleotidase/CD73 …. The experiment is described as above. On the procedure:
as §2

In experiment [6] the target is T4, recombinant rat CD73 (Sino Biological 80375-R08H) (rat, UniProt P21588 29-551).
T4 construct: Bought protein; also called rCD73; rat CD73/His
T4 sequence (looked up): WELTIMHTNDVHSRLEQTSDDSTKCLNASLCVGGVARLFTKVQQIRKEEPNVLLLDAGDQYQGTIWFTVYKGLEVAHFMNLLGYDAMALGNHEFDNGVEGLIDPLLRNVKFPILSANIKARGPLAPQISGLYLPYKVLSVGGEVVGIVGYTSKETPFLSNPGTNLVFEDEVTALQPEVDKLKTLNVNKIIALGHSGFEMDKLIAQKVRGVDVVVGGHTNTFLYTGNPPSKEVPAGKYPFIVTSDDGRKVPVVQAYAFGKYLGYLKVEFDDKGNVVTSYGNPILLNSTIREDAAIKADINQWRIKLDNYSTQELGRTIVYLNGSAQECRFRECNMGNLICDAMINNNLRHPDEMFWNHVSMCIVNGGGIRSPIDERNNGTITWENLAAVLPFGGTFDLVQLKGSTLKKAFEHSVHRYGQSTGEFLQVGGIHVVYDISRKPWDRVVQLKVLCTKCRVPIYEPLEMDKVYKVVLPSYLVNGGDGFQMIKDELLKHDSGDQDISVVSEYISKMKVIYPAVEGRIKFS
The experiment is described as above. On the procedure:
as §2

The target in experiment [7] is T3, Recombinant Mouse 5′-Nucleotidase/CD73 …. The description is as above. The method, then:
as §2

The target in experiment [8] is T2, Recombinant Human 5′-Nucleotidase/CD73 …. The experiment in a line: ForteBio Octet RED384 (BLI), whole IgG on AHQ sensors, 100 nM antigen, 1:1 model; * value approaching upper limit for Kd measurement. On the procedure: as §1
(In BLI a coated tip is dipped into the sample, and binding shifts an interference pattern.)

For experiment [9], the target named is T3, Recombinant Mouse 5′-Nucleotidase/CD73 …. Described as above. On the procedure:
as §1

A word on the Kd: it is the free concentration of one partner at which half of the binding sites on the other are occupied at equilibrium, for simple one-to-one binding.

B1: 358.C (antibody, V domains shown)
VH: QVQLQESGPGLVKPSETLSLTCTVSGGSISGRYWSWIRQPPGKGLEWIGYIYGTGSTNYNPSLKSRVTISVDTSKNQFSLKLSSVTAADTAVYYCARESQESPYNNWFDPWGQGTLVTVSS
VL: DIQMTQSPSSVSASVGDRVTITCRASQGISSWLAWYQQKPGKAPKLLIYAASSLQSGVPSRFSGSGSGTDFTLTISSLQPEDFATYYCQQGNSFPRTFGGGTKVEIK
For B1, the values for the Kd in [1], in experiment [2] and in experiment [3] were 0.814 nM, 0.317 nM and 3.51 nM, respectively.

B2: Fab 350 (Fab, V domains shown)
VH: QVQLQESGPGLVKPSETLSLTCTVSGGSIERYYWSWIRQPPGKGLEWIGYIYGRGSTNYNPSLKSRVTISVDTSKNQFSLKLSSVTAADTAVYYCARESQESPYNNWFDPWGQGTLVTVSS
VL: DIQMTQSPSSVSASVGDRVTITCRASQGISSWLAWYQQKPGKAPKLLIYAASSLQSGVPSRFSGSGSGTDFTLTISSLQPEDFATYYCQQGNSFPRTFGGGTKVEIKR
notes: Made by a stop between the two proline residues above the core hinge region of the heavy chain; also called 350 Fab; Fab of mAb 350
Turning to B2, the Kd in experiment [4] was ≤ 0.1 nM; in experiment [5], ≤ 0.1 nM; in [6], 28.3 nM; in experiment [7], 17.3 nM.

B3: 356.C (antibody, V domains shown)
VH: QVQLQESGPGLVKPSETLSLTCTVSGGSIEGRYWSWIRQPPGKGLEWIGYIYGSGSTKYNPSLKSRVTISVDTSKNQFSLKLSSVTAADTAVYYCARESQESPYNNWFDPWGQGTLVTVSS
VL: DIQMTQSPSSVSASVGDRVTITCRASQGISSWLAWYQQKPGKAPKLLIYAASSLQSGVPSRFSGSGSGTDFTLTISSLQPEDFATYYCQQGNSFPRTFGGGTKVEIK
With B3, the Kd stood at 0.693 nM in [1], 0.401 nM in experiment [3] and 0.243 nM in experiment [8].

B4: 918.C (antibody, V domains shown)
VH: QVQLQESGPGLVKPSETLSLTCTVSGGSISSYYWSWIRQPPGKGLEWIGYIYSSGSTNYNPSLKSRVTISVDTSKNQFSLKLSSVTAADTAVYYCARESQESPYNNWFDPWGQGTLVTVSS
VL: DIQMTQSPSSVSASVGDRVTITCRASQGISSWLAWYQQKPGKAPKLLIYAASSLQSGVPSRFSGSGSGTDFTLTISSLQPEDFATYYCQQGNSFPRTFGGGTKVEIK
Turning to B4, the Kd in [2] amounted to 1.53 nM; in [3], 8.88 nM.

B5: 350.C (antibody, V domains shown)
VH: QVQLQESGPGLVKPSETLSLTCTVSGGSIERYYWSWIRQPPGKGLEWIGYIYGRGSTNYNPSLKSRVTISVDTSKNQFSLKLSSVTAADTAVYYCARESQESPYNNWFDPWGQGTLVTVSS
VL: DIQMTQSPSSVSASVGDRVTITCRASQGISSWLAWYQQKPGKAPKLLIYAASSLQSGVPSRFSGSGSGTDFTLTISSLQPEDFATYYCQQGNSFPRTFGGGTKVEIK
notes: also called 350 IgG1 format
In the case of B5, the Kd was found to be 0.635 nM in experiment [1], 0.248 nM in experiment [8] and 0.409 nM in experiment [9].
